Measured values reported in patent publication US20240067751A1 (KEYMED BIOSCIENCES, published 2024).

B1: chimeric antibody 25L15 (antibody, V domains shown)
VH: KVKLVESGGDLVKPGGSLKISCAASGFTFSNYAMSWIRQTPDKRLEWVATVSSGGPYTYYPDSVKGRFTISRDNAENTLYLQMSSLRSDDTAIYYCARQIYSDYDVTYWGQGTLVTVSA
VL: QIVLSQSPAILSASPGETVTMTCRVSSSVSYMYWLQQKPGSSPKPWIYATSNLASGVPARFSGSGSGTSYSLTITRVEAEDAATYYCQQWSFRPWTFGGGTKLEIK
B2: chimeric antibody 28O14 (antibody, V domains shown)
VH: QVQLQQSGTELARPGASVRMSCKASGYTFRSHTMHWVKQRPGQGLEWIGYINPSTGYINYNQKFKDKATLTADKSSSTAYMQLSSLTSEDSAVYYCARSNYSYYYGMDYWGQGTSVTVSS
VL: DIVMTQSHKFMSTSVGDRVTITCKASQDVNTAVAWYQQKPGQSPKLLIYSASYRYTGVPDRFTGSGSGTDFTFTISSLQAEDLAVYYCQQHYNIPLTFGAGTKLELK
B3: chimeric antibody 16A17 (antibody, V domains shown)
VH: DVQLQESGPGLVKPSQSLSLTCTVTGYSITSDYAWKWIRQFPGNKLEWMGYISYSGSTSYHPSLKGRISITRDTSKNQFFLQLNSVTADDTATYYCAILGYYAMDYWGQGTSVTVSS
VL: DIVMTQSQKFMSTSVGDRVSITCKASQNVRVDVAWYQQKSGQSPRALIYLASNRHTGVPDRFTGSGSGTDFTLTITNVQSEDLADYFCPQHWSYPLTFGGGTKLEIK
B4: chimeric antibody 10L3 (antibody, V domains shown)
VH: DVQLQESGPGLVKPSQSLSLTCTVTGYSITSDYAWNWIRQFPGNKLEWMGYISYSGRTSYNPSLKSRISITRDTSKNQFFLQLNSVTTEDTATYYCAKLGGGHGMDYWGQGTSVTVSS
VL: IVMTQSQKFMSTSVGDRVSVTCKASQNVDTNVAWYQQKPGQSPKALIYSASYRYSGVPDRFTGSGSGTDFTLTISNVQSEDLAEYFCLQYNSYLTFGSGTKLELK
B5: Fab antibody 16B11 (Fab, V domains shown)
VH: QMQLQESGPGLVKPSQSLSLTCTVTGYSITSDYAWNWIRQFPGNKLEWMGYISYSGRTSYNPSLKSRISITRDTSKNQFFLQLNSVTTEDTATYYCARHYGDYWGQGTTLTVSS
VL: DIVMTQSQKLMSTSVGDRVSVTCKASQNVGTNVAWYQQKPGQSPKALIYSASYRNSGVPDRFTGSGSGTDFTLTISNVQSEDLAEYFCQQFNTNPLTFGSGTKLEIK
notes: Purified murine Fab with Flag tag from the phage display library; also called mAb 16B11
B6: Fab antibody 14F11 (Fab, V domains shown)
VH: QVQLQQSGPQLLRPGASVKISCKASGFSFTNHWIHWVKQRPGQGLEWIGMIDPSDSETGLNQKFRDKATLTVDKSSSTAYMHLNSPTSEDSAVYYCARLGIHDGYYIYAMDFWGQGTSVTVSS
VL: NIVMTQSPKSMSMSVGERVTLSCKASENVGTYVSWYQQKPEQSPKLLIYGASNRYTGVPDRFTGSGSATDFTLTISSVQAEDLADYHCGQSYSYPLTFGAGTKLELK
notes: Purified murine Fab with Flag tag from the phage display library; also called mAb 14F11
B7: chimeric antibody 3B9 (antibody, V domains shown)
VH: DVQLQESGPGLVRPSQSLSLTCTVTGYSITSDYAWNWIRQFPGNKLEWMGYISYSGRTSYNPSLKSRLSITRDTSKNQFFLQLNSVSSADTATYYCAIISTAVDFDYWGQGTTLTVSS
VL: QTVLTQSPAIMSASLGERVTMTCTASSSVSSSYLLWYQQKPGSSPKLWIYSTSKLASGVPVRFSGSGSGTSYSLTISSMEADDAATYYCLQYNRSPLTFGAGTKLELK

Columns and labels:
[1] = biological target: T1, mouse MASP-2 D4-6 recombinant protein (mouse, UniProt Q91WP0 298-685); assay: SPR Biacore T200, antibody on Protein A chip, antigen as analyte, 1:1 fit
T1 construct: Made 'similarly' to the human protein (N-terminal his6 tag)
Procedure: (§1) Surface plasmon resonance technology (SPR/Biacore T200) was used to capture 0.1 μg/ml of the antibody on the surface of the Protein A chip, with a capture time of 40 seconds and a flow rate of 10 μl/min. The chip was washed with buffer until the baseline leveled off, then gradient-diluted antigen was flowed through the chip at the flow rate of 30 μl/min, with a binding time of 120 sec and a dissociation time of 600 sec. The equilibrium dissociation constant (KD) was obtained by fitting in Langmuir 1:1 kinetics mode.

[2] = biological target: T2, rat MASP-2 D4-6 recombinant protein (rat, UniProt Q9JJS8 298-685); assay: as above
T2 construct: Made 'similarly' to the human protein (N-terminal his6 tag)
Procedure: as §1

[3] = biological target: T3, Cynomolgus monkey MASP-2 D4-6 recombinant protein (Cynomolgus monkey, UniProt O00187 298-686 (human entry), limits assumed); assay: as above
T3 construct: Made 'similarly' to the human protein (N-terminal his6 tag)
Procedure: as §1

[4] = biological target: T4, human MASP-2 D4-6 recombinant protein (human, UniProt O00187 298-686); assay: as above
T4 construct: his6 tag fused at the N-terminus, made in HEK293E; also called enzymatic activity domains CCP1-CCP2-SP of human MASP-2
Procedure: as §1

[5] = biological target: T1, mouse MASP-2 D4-6 recombinant protein; assay: ELISA, antigen coated, chimeric IgG titrated, anti-human Fc-HRP
[6] = biological target: T2, rat MASP-2 D4-6 recombinant protein; assay: as above
[7] = biological target: T3, Cynomolgus monkey MASP-2 D4-6 …; assay: as above
[8] = biological target: T4, human MASP-2 D4-6 recombinant protein; assay: as above
[9] = biological target: T1, mouse MASP-2 D4-6 recombinant protein; assay: SPR Biacore T200, Flag-tagged Fab captured via anti-Flag antibody on Protein A chip, antigen as analyte, 1:1 fit
Procedure: (§2) The surface plasmon resonance (SPR/Biacore T200) technique was used to capture the anti-Flag antibody with Protein A chip. 10 μg/ml purified Fab antibody containing Flag tag was captured on the chip surface, with a capture time of 40 sec and a flow rate of […]. The chip was washed with buffer until the baseline leveled off, then gradient-diluted MASP-2 antigens were injected as the analytes successively to determine the affinity between Fab and different species antigens. The data were fitted by Biacore T200 Evaluation software 3.1 software in Langmuir 1:1 kinetics mode.

[10] = biological target: T2, rat MASP-2 D4-6 recombinant protein; assay: as above
Procedure: as §2

[11] = biological target: T3, Cynomolgus monkey MASP-2 D4-6 …; assay: as above
Procedure: as §2

[12] = biological target: T4, human MASP-2 D4-6 recombinant protein; assay: as above
Procedure: as §2

T4 sequence (O00187 other isoform, or with tags, fused parts or gaps limits assumed): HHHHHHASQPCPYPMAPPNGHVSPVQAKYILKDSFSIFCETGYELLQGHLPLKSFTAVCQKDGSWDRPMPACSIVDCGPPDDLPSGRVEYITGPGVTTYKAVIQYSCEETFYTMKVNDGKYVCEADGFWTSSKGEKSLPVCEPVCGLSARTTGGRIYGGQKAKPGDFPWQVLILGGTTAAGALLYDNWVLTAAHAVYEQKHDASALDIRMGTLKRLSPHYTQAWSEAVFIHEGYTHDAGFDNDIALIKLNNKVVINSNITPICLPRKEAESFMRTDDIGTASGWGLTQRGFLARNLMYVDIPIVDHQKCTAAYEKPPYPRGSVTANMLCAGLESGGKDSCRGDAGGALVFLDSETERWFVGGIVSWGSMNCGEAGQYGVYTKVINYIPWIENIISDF
T2 sequence (Q9JJS8 other isoform, or with tags, fused parts or gaps limits assumed): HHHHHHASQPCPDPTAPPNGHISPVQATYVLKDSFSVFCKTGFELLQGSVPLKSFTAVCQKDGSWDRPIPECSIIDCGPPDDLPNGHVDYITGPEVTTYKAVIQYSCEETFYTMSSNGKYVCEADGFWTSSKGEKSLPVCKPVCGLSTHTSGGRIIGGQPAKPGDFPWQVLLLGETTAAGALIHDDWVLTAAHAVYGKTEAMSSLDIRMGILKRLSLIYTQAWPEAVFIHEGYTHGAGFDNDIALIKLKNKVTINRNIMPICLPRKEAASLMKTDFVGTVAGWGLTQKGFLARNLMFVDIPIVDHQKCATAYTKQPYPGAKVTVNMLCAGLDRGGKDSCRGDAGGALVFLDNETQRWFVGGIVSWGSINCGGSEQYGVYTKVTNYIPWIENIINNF
T3 sequence (O00187 other isoform, or with tags, fused parts or gaps limits assumed): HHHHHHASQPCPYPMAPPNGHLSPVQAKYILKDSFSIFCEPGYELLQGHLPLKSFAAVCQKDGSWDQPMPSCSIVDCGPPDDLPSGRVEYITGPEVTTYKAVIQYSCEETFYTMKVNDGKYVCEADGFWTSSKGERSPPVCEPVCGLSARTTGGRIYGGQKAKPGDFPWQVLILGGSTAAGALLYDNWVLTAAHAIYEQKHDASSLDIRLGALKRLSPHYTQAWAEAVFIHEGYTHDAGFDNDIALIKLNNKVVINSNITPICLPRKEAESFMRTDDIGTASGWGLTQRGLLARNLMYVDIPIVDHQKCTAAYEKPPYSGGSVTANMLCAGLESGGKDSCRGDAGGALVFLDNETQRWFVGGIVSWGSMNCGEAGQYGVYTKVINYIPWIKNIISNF
T1 sequence (Q91WP0 other isoform, or with tags, fused parts or gaps limits assumed): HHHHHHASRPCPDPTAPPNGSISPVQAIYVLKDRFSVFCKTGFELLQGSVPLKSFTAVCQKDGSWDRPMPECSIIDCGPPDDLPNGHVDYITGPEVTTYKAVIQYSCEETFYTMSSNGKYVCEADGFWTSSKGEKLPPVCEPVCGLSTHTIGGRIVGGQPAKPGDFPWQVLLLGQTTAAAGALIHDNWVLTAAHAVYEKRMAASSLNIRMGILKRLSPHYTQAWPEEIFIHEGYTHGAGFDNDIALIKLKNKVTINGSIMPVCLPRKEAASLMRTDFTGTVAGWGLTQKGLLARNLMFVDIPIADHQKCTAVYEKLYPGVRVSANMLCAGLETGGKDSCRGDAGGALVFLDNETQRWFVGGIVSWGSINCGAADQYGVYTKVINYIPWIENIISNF

| Binder | Kd [1] | Kd [2] | Kd [3] | Kd [4] | EC50 [5] | EC50 [6] | EC50 [7] | EC50 [8] | Kd [9] | koff [9] | kon [9] | Kd [10] | koff [10] | kon [10] | Kd [11] | koff [11] | kon [11] | Kd [12] | koff [12] | kon [12] |
| --- | --- | --- | --- | --- | --- | --- | --- | --- | --- | --- | --- | --- | --- | --- | --- | --- | --- | --- | --- | --- |
| B1 | 499 nM | 167 nM | 0.92 nM | 0.12 nM | 0.023 nM | 0.021 nM | 0.008 nM | 0.012 nM | – | – | – | – | – | – | – | – | – | – | – | – |
| B2 | 767 nM | 162 nM | 0.01 nM | 0.09 nM | – | – | 0.043 nM | 0.033 nM | – | – | – | – | – | – | – | – | – | – | – | – |
| B3 | 487 nM | – | 0.063 nM | 0.008 nM | 1.97 nM | 4.3 nM | 0.014 nM | 0.014 nM | – | – | – | – | – | – | – | – | – | – | – | – |
| B4 | 214 nM | – | 1.29 nM | 0.07 nM | 30.9 nM | 30.2 nM | 0.016 nM | 0.022 nM | – | – | – | – | – | – | – | – | – | – | – | – |
| B5 | – | – | – | – | – | – | – | – | 1.76 nM | 0.00811 s⁻¹ | 4.61e+06 M⁻¹ s⁻¹ | 5.06 nM | 0.00931 s⁻¹ | 1.84e+06 M⁻¹ s⁻¹ | 0.109 nM | 0.000181 s⁻¹ | 1.66e+06 M⁻¹ s⁻¹ | 0.0407 nM | 8.75e-05 s⁻¹ | 2.15e+06 M⁻¹ s⁻¹ |
| B6 | – | – | – | – | – | – | – | – | 18 nM | 1.16 s⁻¹ | 6.44e+07 M⁻¹ s⁻¹ | 0.546 nM | 0.00182 s⁻¹ | 3.34e+06 M⁻¹ s⁻¹ | 4.66 nM | – | – | 0.172 nM | 0.000163 s⁻¹ | 948000 M⁻¹ s⁻¹ |
| B7 | 476 nM | 1040 nM | 0.051 nM | 0.067 nM | 4.39 nM | 1.62 nM | 0.038 nM | 0.025 nM | – | – | – | – | – | – | – | – | – | – | – | – |
